Here are results for one substance from US20120039878A1.

The target of this assay is murine monoclonal antibody 2A4 (ATCC Accession Number PTA-9662). Description: Competition ELISA; mouse AA (AEF) in solution competing with adsorbed human AA amyloid extract for mAb 2A4.
Sequence of murine monoclonal antibody 2A4 (ATCC Accession Number PTA-9662) (VL, as listed by the source, chain 1 of 2): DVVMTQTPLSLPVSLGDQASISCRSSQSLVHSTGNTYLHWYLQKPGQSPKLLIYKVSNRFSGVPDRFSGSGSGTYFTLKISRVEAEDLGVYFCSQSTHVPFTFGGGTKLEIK
Sequence of murine monoclonal antibody 2A4 (ATCC Accession Number PTA-9662) (VH, as listed by the source, chain 2 of 2): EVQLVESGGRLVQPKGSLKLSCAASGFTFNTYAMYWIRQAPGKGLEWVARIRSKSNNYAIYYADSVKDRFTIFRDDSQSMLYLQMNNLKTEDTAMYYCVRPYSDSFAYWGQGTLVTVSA

Sequence of murine AA amyloid (AA fibrils; amyloid enhancing factor extract, AEF) (P05367 20-94): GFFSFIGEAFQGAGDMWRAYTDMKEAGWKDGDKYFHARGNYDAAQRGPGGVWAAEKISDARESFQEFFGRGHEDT

The substance “murine AA amyloid (AA fibrils; amyloid enhancing factor extract, AEF)” showed an IC50 of 14.7 µg/mL.
